This note sets out measurements from paper PMC10641286.

The target in test [1] is chymase (UniProt P23946).
For test [2], the target named is chymase (UniProt P23946). Briefly: second-order rate constant of inhibition, discontinuous method (residual enzymatic activity); rIxsS41 25-300 nM (chymase) or 100-1600 nM (cathepsin G) pre-incubated 0-15 min at 37°C with constant protease (0.1 µg); kobs plotted against rIxsS41.
The target in test [3] is cathepsin G (UniProt P08311). The test is described as above.
Sequence of UniProt P08311 (P08311 21-244): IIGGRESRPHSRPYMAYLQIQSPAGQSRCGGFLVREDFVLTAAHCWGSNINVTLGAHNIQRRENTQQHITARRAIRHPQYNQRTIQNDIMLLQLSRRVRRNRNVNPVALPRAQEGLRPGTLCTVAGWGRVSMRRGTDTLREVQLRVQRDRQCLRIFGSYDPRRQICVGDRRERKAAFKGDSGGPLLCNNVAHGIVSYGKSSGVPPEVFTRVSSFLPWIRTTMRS
Test [4] concerns the target chymase (UniProt P23946). Briefly: stoichiometry of inhibition (residual enzymatic activity, colorimetric substrate); various concentrations of rIxsS41 (molar ratios 0-10) with a constant concentration of protease, 1 h at 37°C; linear regression of the inhibitory curve. The following applies: scale: molecules of rIxsS41 per molecule of protease.
Test [5] deals with cathepsin G (UniProt P08311). The description is as above. The conditions noted are these: scale: molecules of rIxsS41 per molecule of protease.
In test [6] the target is chymase (UniProt P23946). This is another data set of the same source.
For another test, the target named is trypsin IV (UniProt P35030).
Sequence of UniProt P35030 (P35030 81-304): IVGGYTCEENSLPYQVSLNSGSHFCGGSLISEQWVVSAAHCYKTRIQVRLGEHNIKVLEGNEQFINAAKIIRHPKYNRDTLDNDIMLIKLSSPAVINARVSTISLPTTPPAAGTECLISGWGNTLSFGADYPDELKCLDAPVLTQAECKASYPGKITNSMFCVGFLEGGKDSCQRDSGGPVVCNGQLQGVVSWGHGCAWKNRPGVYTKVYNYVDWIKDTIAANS
Test [7] addresses cathepsin G (UniProt P08311).
Test [8] has as its target chymase (UniProt P23946). The test is described as follows: second-order rate constant of inhibition, discontinuous method (residual enzymatic activity); rIxsS41 25-300 nM (chymase) or 100-1600 nM (cathepsin G) pre-incubated 0-15 min at 37°C with constant protease (0.1 µg); kobs plotted against rIxsS41. The source holds these as a separate data set.
Test [9] has as its target cathepsin G (UniProt P08311). The test is described as above. The source holds these as a separate data set.

Where two headings read alike, the source gives them in different places.

Sequence of UniProt P23946 (P23946 22-247): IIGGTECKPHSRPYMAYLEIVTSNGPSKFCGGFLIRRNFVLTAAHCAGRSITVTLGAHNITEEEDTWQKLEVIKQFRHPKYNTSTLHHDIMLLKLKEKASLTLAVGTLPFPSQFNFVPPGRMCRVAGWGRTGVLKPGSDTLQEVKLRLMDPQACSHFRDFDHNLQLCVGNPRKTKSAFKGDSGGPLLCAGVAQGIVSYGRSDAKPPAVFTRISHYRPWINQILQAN

In the test with chymase [1], “recombinant Ixodes scapularis nymph tick saliva serpin 41 (rIxsS41) (natural protein)” displayed a C48/80-induced (chymase-mediated) paw edema in BALB/c mice, co-injection of C48/80 (1 µg) with rIxsS41 (25 µg); the chymase is the mouse's own of 85%. Besides, the ka (second-order rate constant of inhibition) in the test with chymase [2] turned out to be 2400 M⁻¹ s⁻¹; with cathepsin G [3], 1700 M⁻¹ s⁻¹; with chymase [8], 6600 M⁻¹ s⁻¹; with cathepsin G [9] it was 2400 M⁻¹ s⁻¹. For the same substance, the stoichiometry of inhibition (SI) in the test with chymase [4] came out at 2.8; in the test with cathepsin G [5], 2.2. For the same substance, in the test with chymase [6], the inhibition of enzymatic activity (chromogenic substrate hydrolysis), rIxsS41 1 µM, chymase 34.2 nM, pre-incubated 15 min at 37°C was determined as 100%. The inhibition of enzymatic activity (chromogenic substrate hydrolysis), rIxsS41 1 µM, pancreatic trypsin 0.5 nM, pre-incubated 15 min at 37°C with pancreatic trypsin is 100%. This substance came in with an inhibition of enzymatic activity (chromogenic substrate hydrolysis), rIxsS41 1 µM, chymotrypsin 25.7 nM, pre-incubated 15 min at 37°C in the test with chymotrypsin of 100%. For the same substance, the inhibition of enzymatic activity (chromogenic substrate hydrolysis), rIxsS41 1 µM, thrombin 19.8 nM, pre-incubated 15 min at 37°C with thrombin was determined as 100%. This substance also displayed an inhibition of enzymatic activity (chromogenic substrate hydrolysis), rIxsS41 1 µM, trypsin IV 12.5 nM, pre-incubated 15 min at 37°C with trypsin IV of 100%. In the test with cathepsin G [7], this substance returned an inhibition of enzymatic activity (chromogenic substrate hydrolysis), rIxsS41 1 µM, cathepsin G 154.4 nM, pre-incubated 15 min at 37°C of 100%.
